From patent US11932683B2, “Cellular factors involved in the cytotoxicity of Staphylococcus aureus leukocidins: novel therapeutic targets” (NEW YORK UNIVERSITY, priority 2013, dated 2024)

Assays:
monocytes within PBMCs = assay: LukED treatment of human PBMCs, CD14/CD3 flow cytometry; format: cell-based; settings: PBMCs from a Δ32Ccr5 donor; LukED 75 nM
Description: (§1) Isolation of PBMCs. Blood was obtained as buffy coats with the consent of de-identified donors from the New York Blood Center. PBMCs were isolated from blood using a Ficoll-Paque PLUS gradient (GE Amersham) and gated on CCR5^+ cells, followed by anti-CD3 and CD14 cell surface staining for lymphocyte and monocyte populations. Cells were then incubated with LukED (75 nM) in the presence or absence of maraviroc (MVC, 100 ng ml-1).
CCR5 inhibitor and ligands. Maraviroc was obtained through the AIDS Research and Reference Reagent Program, Division of AIDS (NIAID, NIH) and used at a final concentration of 100 ng ml-1.
(§2) FACS analysis. Cell staining was performed as described previously (Alonzo et al., “CCR5 is a Receptor for Staphylococcus aureus Leukotoxin ED,” Nature 493:51-55 (2013), which is hereby incorporated by reference in its entirety). FACS data were obtained using FACSDiva software on a LSRII flow cytometer (BD Biosciences). Data was analyzed using FlowJo software (Treestar).
(§3) Leukotoxin treatments. HEK293T cells, THP-1, primary human PBMCs and primary murine peritoneal exudate cells were treated with LukE, LukD or LukED as previously described (Alonzo et al., “CCR5 is a Receptor for Staphylococcus aureus Leukotoxin ED,” Nature 493:51-55 (2013), which is hereby incorporated by reference in its entirety). In all experiments 1-2×10^5 cells were seeded into 96-well plates. […]

CCR5 = target: T1, CCR5 (Homo sapiens, UniProt P51681); assay: Toxin susceptibility of HEK293T cells transfected with CCR5; format: cell-based; settings: ethidium bromide permeability (1 hr; HlgAB 20 μg/ml)
T1 construct: expressed in transfected cells; host or cells: HEK293T

CXCR2 = target: T2, CXCR2 (Homo sapiens, UniProt P25025); assay: Toxin susceptibility of HEK293T cells transfected with chemokine receptor CXCR2; format: cell-based; set-up: expressed in transfected cells; host or cells: HEK293T; settings: viability (600 nM) or ethidium bromide permeability (1 hr; HlgAB/HlgCB 20 μg/ml)
T2 sequence (P25025 1-360): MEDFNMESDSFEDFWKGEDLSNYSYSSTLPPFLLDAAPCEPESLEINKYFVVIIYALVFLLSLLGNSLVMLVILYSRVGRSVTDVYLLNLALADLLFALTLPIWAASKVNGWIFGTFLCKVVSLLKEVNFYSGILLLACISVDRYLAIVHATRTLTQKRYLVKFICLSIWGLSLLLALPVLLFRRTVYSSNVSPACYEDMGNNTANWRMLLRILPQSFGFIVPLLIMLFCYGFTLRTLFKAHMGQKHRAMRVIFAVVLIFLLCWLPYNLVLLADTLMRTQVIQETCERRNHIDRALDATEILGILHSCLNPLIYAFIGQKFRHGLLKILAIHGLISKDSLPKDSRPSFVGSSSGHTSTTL
Description: (§4) Cell culture conditions and viral transductions. Primary human cells and THP-1 were cultured at 37° C. with 5% CO2 in RPMI supplemented with 10% fetal bovine serum (FBS; Atlanta Biologicals) and penicillin (100 U ml-1) and streptomycin (0.1 mg ml-1) (Mediatech) unless stated otherwise. Overexpression and lentiviral-based knockdown of Cxcr2 or non-target shRNA were performed as previously described (Wan et al., “Cytokine Signals Through PI-3 Kinase Pathway Modulate Th17 Cytokine Production by CCR6+ Human Memory T Cells,” J. Exp. Med. 208:1875-1887 (2011), which is hereby incorporated by reference in its entirety) and maintained in 1.3 μg ml-1 puromycin. HEK293T cells were cultured at 37° C. with 5% CO2 in DMEM (Cellgro) and supplemented as described above.
as §3

[1] = tested on: murine peritoneal exudate cells (PMNs, CCR5^+ macrophages); assay: Killing of murine peritoneal exudate cells (PEC) by toxins in vitro; format: cell-based, mouse; settings: 300 nM
Description: Murine in vitro and in vivo experiments. To evaluate LukED-mediated killing of murine cells in vitro, C57BL/6 WT mice (Taconic) were injected intraperitoneally with 1×10^7 CFU of heatkilled S. aureus Newman ΔlukED. Twenty-four hours post injection, another dose of 1×10^7 CFU of heat-killed S. aureus Newman ΔlukED was injected as before. After an additional twenty-four hours, mice were sacrificed and immune cells were collected by peritoneal cavity lavage using 8 ml of PBS. Red blood cells were lysed using 2 ml ACK lysis buffer (Gibco) followed by resuspension of remaining peritoneal exudate cells in RPMI+10% FBS. Cells were incubated with PBS, LukED or LukE^DR4D (300 nM) and incubated for 30 minutes on ice. After incubation, the cells were washed three times with PBS then stained with the fixable viability dye eFluor-450, followed by cell surface staining with CD11b, B220, F480, CD3, Ly6G, CCR5 and CXCR2 antibodies. Cell viability of specific immune cell populations was subsequently analyzed on an LSRII flow cytometer (BD). FACS plots are representative of results obtained from cells isolated from at least 3 independent animals.

THP-1 cells = assay: Viability of THP-1 cells transduced with non-target or Cxcr2 shRNA treated with LukED; format: cell-based, human; settings: Cxcr2 shRNA versus non-target shRNA
Description: as §4, §3

mice = assay: Survival of mice upon bloodstream (intravenous) administration of purified toxin; format: in vivo, mouse; settings: intravenous injection, 10 μg of each subunit, n=5
DARC = target: T3, DARC (Homo sapiens, UniProt Q16570); assay: Toxin susceptibility of HEK293T cells transfected with DARC; format: cell-based; settings: ethidium bromide permeability (1 hr; HlgAB/HlgCB 20 μg/ml)
T3 construct: expressed in transfected cells; host or cells: HEK293T
T3 sequence (Q16570 1-336): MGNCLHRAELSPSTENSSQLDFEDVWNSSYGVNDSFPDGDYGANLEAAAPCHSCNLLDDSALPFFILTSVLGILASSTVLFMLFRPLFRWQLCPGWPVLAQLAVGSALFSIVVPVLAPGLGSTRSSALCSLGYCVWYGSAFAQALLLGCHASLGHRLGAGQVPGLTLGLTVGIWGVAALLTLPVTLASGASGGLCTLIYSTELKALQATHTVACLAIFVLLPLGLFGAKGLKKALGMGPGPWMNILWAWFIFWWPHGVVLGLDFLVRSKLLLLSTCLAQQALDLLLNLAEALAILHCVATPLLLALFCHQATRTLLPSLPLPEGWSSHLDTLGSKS

CXCR1 = target: T4, CXCR1 (Homo sapiens, UniProt P25024); assay: Toxin susceptibility of HEK293T cells transfected with chemokine receptor CXCR1; format: cell-based; set-up: expressed in transfected cells; host or cells: HEK293T; settings: viability (600 nM) or ethidium bromide permeability (1 hr; HlgAB/HlgCB 20 μg/ml)
T4 sequence (P25024 1-350): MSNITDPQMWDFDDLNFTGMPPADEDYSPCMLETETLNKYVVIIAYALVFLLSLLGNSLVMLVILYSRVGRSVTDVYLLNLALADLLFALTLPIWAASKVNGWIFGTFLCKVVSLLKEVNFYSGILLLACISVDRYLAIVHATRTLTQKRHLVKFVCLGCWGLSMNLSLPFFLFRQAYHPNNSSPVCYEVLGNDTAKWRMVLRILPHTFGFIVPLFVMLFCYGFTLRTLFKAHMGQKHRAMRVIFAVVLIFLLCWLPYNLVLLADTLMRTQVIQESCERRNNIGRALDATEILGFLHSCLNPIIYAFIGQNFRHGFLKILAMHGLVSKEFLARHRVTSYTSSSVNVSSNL

[2] = tested on: PBMC subsets (NK cells, CD8^+ T cells, monocytes); assay: Susceptibility of PBMC subsets to toxins, flow cytometry; format: cell-based, human
Description: as §1, §2, §3

human PMNs = assay: Viability of primary human neutrophils (PMNs) treated with leukotoxins; format: cell-based
human RBCs = assay: LukED-mediated lysis of human red blood cells; format: cell-based; settings: RBCs from nine donors, DARC+ and DARC−

T1 sequence (P51681 whole entry): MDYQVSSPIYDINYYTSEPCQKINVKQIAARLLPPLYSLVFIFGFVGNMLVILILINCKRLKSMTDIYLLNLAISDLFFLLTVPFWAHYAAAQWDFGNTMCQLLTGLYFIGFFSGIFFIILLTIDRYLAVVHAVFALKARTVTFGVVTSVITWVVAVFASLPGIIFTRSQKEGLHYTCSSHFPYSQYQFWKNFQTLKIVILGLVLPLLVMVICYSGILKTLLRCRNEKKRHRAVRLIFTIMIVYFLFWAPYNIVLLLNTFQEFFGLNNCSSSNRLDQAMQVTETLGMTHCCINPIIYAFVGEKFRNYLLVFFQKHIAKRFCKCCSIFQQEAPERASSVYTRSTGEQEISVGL

B1: LukED: S. aureus bicomponent pore-forming leukotoxin leukocidin E/D, LukE plus LukD subunits (protein)
chain 1: NTNIENIGDGAEVIKRTEDVSSKKWGVTQNVQFDFVKDKKYNKDALIVKMQGFINSRTSFSDVKGSGYELTKRMIWPFQYNIGLTTKDPNVSLINYLPKNKIETTDVGQTLGYNIGGNFQSAPSIGGNGSFNYSKTISYTQKSYVSEVDKQNSKSVKWGVKANEFVTPDGKKSAHDRYLFVQSPNGPTGSAREYFAPDNQLPPLVQSGFNPSFITTLSHEKGSSDTSEFEISYGRNLDITYATLFPRTGIYAERKHNAFVNRNFVVRYEVNWKTHEIKVKGHN
chain 2: AQHITPVSEKKVDDKITLYKTTATSDNDKLNISQILTFNFIKDKSYDKDTLVLKAAGNINSGYKKPNPKDYNYSQFYWGGKYNVSVSSESNDAVNVVDYAPKNQNEEFQVQQTLGYSYGGDINISNGLSGGLNGSKSFSETINYKQESYRTTIDRKTNHKSIGWGVEAHKIMNNGWGPYGRDSYDPTYGNELFLGGRQSSSNAGQNFLPTHQMPLLARGNFNPEFISVLSHKQNDTKKSKIKVTYQREMDRYTNQWNRLHWVGNNYKNQNTVTFTSTYEVDWQNHTVKLIGTDSKETNPGV
modifications: left off: small tags and cut ends
notes: S. aureus bicomponent pore-forming leukotoxin leukocidin E/D, LukE plus LukD subunits
- LukED targeting of monocytes (monocytes within PBMCs): targeted in a LukED-mediated, CCR5-independent manner
- susceptibility of CCR5-transfected HEK293T cells to toxin (CCR5): targets CCR5, CXCR1, CXCR2, and DARC to kill host cells
- susceptibility of CXCR2-transfected HEK293T cells to toxin (CXCR2): sufficient to render HEK293T cells susceptible
- susceptibility of murine CCR5+ macrophages [1]: equally susceptible to both LukED and LukE^DR4D
- murine PMNs killed ([1]; 30 minutes on ice): ~79%
- LukED killing of THP-1 cells after CXCR2 knockdown (THP-1 cells): rendered cells resistant to LukED killing
- lethality in mice (mice): rapid death
- susceptibility of DARC-transfected HEK293T cells to toxin (DARC): sufficient to render HEK293T cells susceptible
- susceptibility of CXCR1-transfected HEK293T cells to toxin (CXCR1): sufficient to render HEK293T cells susceptible
- cytotoxicity to NK cells and CD8+ T cells in PBMCs [2]: cytotoxic to the majority of NK cells and a subset of CD8^+ T cells
- cytotoxic activity against hPMNs (human PMNs; LukE or alanine mutant mixed equimolar with LukD, n=8 donors): targeted and killed the hPMNs
- susceptibility of PMNs to toxin (viability) (human PMNs; PMNs from Ccr5+/+ and Δ32Ccr5 donors, 75 nM): equally susceptible to LukED
- hemolysis of human RBCs (human RBCs): some donors were susceptible to LukED hemolysis while others were not
